In publication PMC11078644, “Nesprin-2 is a novel scaffold protein for telethonin and FHL-2 in the cardiomyocyte sarcomere” (The Journal of Biological Chemistry, 2024):

T1: His-telethonin (full length, pET DUET-1, N-terminal 6x Histidine tag), co-expressed with nesprin-2 SR51-53 (UniProt O15273 1-167)
T1 construct: telethonin, full length; printed mass 19 kDa; source: E. coli BL21(DE3)pLysS, co-expressed with nesprin-2 SR51-53, co-purified (His-trap, SEC); not shown: 6x His, N-terminal, kept
T1 sequence (looked up): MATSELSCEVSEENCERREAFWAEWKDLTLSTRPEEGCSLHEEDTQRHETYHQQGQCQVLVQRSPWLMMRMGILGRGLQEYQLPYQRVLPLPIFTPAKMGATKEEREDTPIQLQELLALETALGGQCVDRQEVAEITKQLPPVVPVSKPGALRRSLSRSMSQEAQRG

B1: nesprin-2 SR51-53 (no tag), co-expressed with His-telethonin (domain or fragment, human, UniProt Q8WXH0 6018-6354, looked up)
chain: KETFAFIQQLDKNMSNLRTWLARIESELSKPVVYDVCDDQEIQKRLAEQQDLQRDIEQHSAGVESVFNICDVLLHDSDACANETECDSIQQTTRSLDRRWRNICAMSMERRMKIEETWRLWQKFLDDYSRFEDWLKSAERTAACPNSSEVLYTSAKEELKRFEAFQRQIHERLTQLELINKQYRRLARENRTDTASRLKQMVHEGNQRWDNLQRRVTAVLRRLRHFTNQREEFEGTRESILVWLTEMDLQLTNVEHFSESDADDKMRQLNGFQQEITLNTNKIDQLIVFGEQLIQKSEPLDAVLIEDELEELHRYCQEVFGRVSRFHRRLTSCTPGL
notes: nesprin-2 giant, human, spectrin repeats 51-53, amino acids 6018-6354 of the full length of nesprin-2 giant; in CDF DUET-1 without a tag; printed mass 40.51 kDa; source: E. coli BL21(DE3)pLysS, co-expressed with His-telethonin, co-purified (His-trap, SEC)

How the values were obtained:
[1] = molecular target: nesprin-2, endogenous ~200 kDa band of neonatal rat heart and neonatal rat cardiomyocytes; experiment: co-immunoprecipitation with telethonin antibody, Western blot densitometry; conditions: lysates harvested 48 h after adenoviral infection, n = 5, parent: est. 1.0, read off a plot
[2] = molecular target: T1, His-telethonin (full length, pET …); experiment: SEC; His-telethonin and untagged nesprin-2 SR51-53 co-expressed in E. coli, His-trap, Superdex 200 16/60, then Superdex 75 10/300; 50 mM Tris/HCl pH 7.5, 150 mM NaCl, 100 mM βME; single peak at 10.29 ml, both proteins found by Western blot; conditions: both partners purified

Row | Molecule | ratio to parent [1] | stoichiometry N [2]
1 | HA-tagged WT telethonin expressed from adenovirus in neonatal rat cardiomyocytes (from UniProt O15273) S157A; S161A | 4.8 | 
2 | B1 |  | 1 nesprin-2 SR51-53 per telethonin
